Test results reported in paper PMC3910112.

Biological target: fluorescein-labelled mouse EAG1 eag domain (FL-eag) (mouse) (UniProt Q60603)
Assay: fluorescence polarisation

“mouse EAG1 (mEAG1) CNBHD (residues 552-724) (from UniProt Q60603 552-724) (domain or fragment)” showed a Kd of 13.2 µM.
